Assay results taken from patent US20110318757A1 (MAB FACTORY, published 2011).
Substitutions are numbered along the chain they refer to.

B1: R764-B7 (HT186-B7 IgG) (antibody, V domains shown)
VH: QMQLVQSGAEVKKPGASVKVSCKASGYTFTGHYMHWVRQAPGQGLEWMGWIDPVTGGTKYAQNFQGWVTMTRDTSIRTAYMELSRLRSDDTAMYYCAREVTGDRGQFDKWGQGTLVTVAS
VL: QSVLTQPPSVSVAPGKTARITCGGNNIGSKSVHWYQQKPGQAPALVIYYGSYRPSGIPERFSGSNYGNTATLTIRRVEAGDEADYYCQVWDSSSDWVFGGGTKLTVLG
notes: Human IgG1, lambda, produced in YB2/0 cells
B2: R764-G2 (HT186-G2 IgG) (antibody, V domains shown)
VH: B1 VH with Q1R, V20L, T30A, Q43R
VL: B1 VL with A44V, Y52D, P54S, Y66S, R75S
notes: as for B1
B3: R764-D11 (HT186-D11 IgG) (antibody, V domains shown)
VH: B1 VH with G8E, V11L, T28S, M81L
VL: B1 VL with Y52N, Y66S, R75S
notes: Human IgG1, lambda, produced in YB2/0 cells; also called R764 HT186-D11

Assays:
[1] = biological target: T1, MUC1 (surface cell bound, tumor associated MUC1) (human, UniProt P15941 24-1255, tumor-associated O-glycosylation); assay: FACS on T47D cells, antibody at 0.0316 µg/ml
T1 construct: whole, on cells; Endogenous MUC1 on tumor cell lines; also called CD227; CA-15-3
Description: (§1) From these antibody solutions further dilution by a factor of 3.162 were made (in a PP microtiter plate), so following antibody concentrations were used for FACS (μg/mL): 100, 31.62 10; 3.16; 1; 0.316; 0.1, 0.0316, 0.01, 0.003162
(§2) bound anti-MUC1 antibodies were detected by: goat anti-human IgG (H+L) Alexa488 conj. 1:200=10 μg/mL final (Invitrogen resp. Molecular probes Cat.No. A-11013) in 100 μL FACS buffer in total: 38.5 μL (stock: 2 mg/mL) were given to 7661.5 μL FACS buffer
(§3) The measurement was performed on a Beckman Coulter Cytomics FC500. Gates were set by analyzing a mock-control of each cell line w/o any antibody incubation. Specific protocol files (.pro) were saved.

[2] = biological target: T1, MUC1 (surface cell bound, tumor …); assay: FACS on T47D cells, antibody at 0.1000 µg/ml
Description: as §1, §2, §3

[3] = biological target: T1, MUC1 (surface cell bound, tumor …); assay: FACS on T47D cells, antibody at 0.0032 µg/ml
Description: as §1, §2, §3

[4] = biological target: T1, MUC1 (surface cell bound, tumor …); assay: FACS on T47D cells, antibody at 0.0100 µg/ml
Description: as §1, §2, §3

[5] = biological target: T1, MUC1 (surface cell bound, tumor …); assay: FACS on T47D cells, antibody at 100.0000 µg/ml
Description: as §1, §2, §3

[6] = biological target: T1, MUC1 (surface cell bound, tumor …); assay: FACS on T47D cells, antibody at 31.6228 µg/ml
Description: as §1, §2, §3

[7] = biological target: T1, MUC1 (surface cell bound, tumor …); assay: FACS on T47D cells, antibody at 1.0000 µg/ml
Description: as §1, §2, §3

[8] = biological target: T1, MUC1 (surface cell bound, tumor …); assay: FACS on T47D cells, antibody at 3.1623 µg/ml
Description: as §1, §2, §3

[9] = biological target: T1, MUC1 (surface cell bound, tumor …); assay: FACS on T47D cells, antibody at 10.0000 µg/ml
Description: as §1, §2, §3

[10] = biological target: T1, MUC1 (surface cell bound, tumor …); assay: FACS on T47D cells, antibody at 0.3162 µg/ml
Description: as §1, §2, §3

T1 sequence (P15941 24-1255): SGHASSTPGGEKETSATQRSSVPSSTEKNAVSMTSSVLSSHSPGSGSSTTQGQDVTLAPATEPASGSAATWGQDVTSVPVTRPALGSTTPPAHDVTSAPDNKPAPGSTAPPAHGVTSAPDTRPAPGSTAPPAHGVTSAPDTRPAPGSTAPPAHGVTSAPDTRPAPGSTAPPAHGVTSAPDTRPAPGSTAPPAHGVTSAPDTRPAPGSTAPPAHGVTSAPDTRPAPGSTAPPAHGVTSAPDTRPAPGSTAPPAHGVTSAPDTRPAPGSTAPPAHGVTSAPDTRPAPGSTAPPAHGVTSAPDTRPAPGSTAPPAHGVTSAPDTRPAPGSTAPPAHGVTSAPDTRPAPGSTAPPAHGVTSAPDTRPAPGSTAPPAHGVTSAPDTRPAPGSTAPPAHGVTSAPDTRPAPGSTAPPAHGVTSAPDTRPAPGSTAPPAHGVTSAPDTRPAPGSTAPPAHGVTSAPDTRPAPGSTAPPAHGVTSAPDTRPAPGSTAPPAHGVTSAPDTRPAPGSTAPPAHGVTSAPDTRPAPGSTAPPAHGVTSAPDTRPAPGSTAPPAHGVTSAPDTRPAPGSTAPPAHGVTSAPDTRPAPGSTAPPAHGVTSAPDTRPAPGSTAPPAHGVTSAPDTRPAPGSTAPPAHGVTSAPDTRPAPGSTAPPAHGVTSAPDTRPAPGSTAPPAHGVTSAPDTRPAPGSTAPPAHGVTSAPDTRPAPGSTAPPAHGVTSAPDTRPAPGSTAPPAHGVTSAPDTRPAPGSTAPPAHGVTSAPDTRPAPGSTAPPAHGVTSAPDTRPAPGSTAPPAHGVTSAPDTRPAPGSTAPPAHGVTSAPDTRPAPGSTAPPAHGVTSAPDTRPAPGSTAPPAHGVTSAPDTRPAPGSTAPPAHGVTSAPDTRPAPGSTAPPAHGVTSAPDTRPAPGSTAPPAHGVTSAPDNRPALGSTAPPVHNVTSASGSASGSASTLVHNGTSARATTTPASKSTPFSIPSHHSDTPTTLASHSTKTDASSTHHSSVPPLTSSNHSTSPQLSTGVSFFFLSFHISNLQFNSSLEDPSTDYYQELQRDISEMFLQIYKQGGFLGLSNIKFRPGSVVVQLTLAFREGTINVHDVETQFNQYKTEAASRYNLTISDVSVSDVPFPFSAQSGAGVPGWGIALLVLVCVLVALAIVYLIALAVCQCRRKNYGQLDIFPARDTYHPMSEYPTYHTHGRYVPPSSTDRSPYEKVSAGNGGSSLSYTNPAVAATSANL

Binder	MFI [1]	MFI [2]	MFI [3]	MFI [4]	MFI [5]	MFI [6]	MFI [7]	MFI [8]	MFI [9]	MFI [10]
B1	1.04	0.728	0.738	1.11	12.6	9.16	2.26	4.96	6.56	1.44
B2	1.04	0.664	0.706	0.767	6.15	3.68	0.605	0.802	1.99	0.515
B3	1.13	1.45	1.17	1.09	17.4	13.2	4.72	7.92	11.1	1.96
